The labels stand for the following.
B1: Ras suppressor-1 (Rsu-1), wild type, full length (natural protein, human, UniProt Q15404 1-277, looked up)
chain: MSKSLKKLVEESREKNQPEVDMSDRGISNMLDVNGLFTLSHITQLVLSHNKLTMVPPNIAELKNLEVLNFFNNQIEELPTQISSLQKLKHLNLGMNRLNTLPRGFGSLPALEVLDLTYNNLSENSLPGNFFYLTTLRALYLSDNDFEILPPDIGKLTKLQILSLRDNDLISLPKEIGELTQLKELHIQGNRLTVLPPELGNLDLTGQKQVFKAENNPWVTPIADQFQLGVSHVFEYIRSETYKYLYGRHMQANPEPPKKNNDKSKKISRKPLAAKNR
notes: after thrombin cleavage a few of its residues probably remain (surmised); also called Rsu-1 (WT); Rsu-1 WT; not shown: His6, N-terminal, cleaved
B2: GST-fused PINCH-2 LIM5S domain (residues 254-330) (domain or fragment, human, UniProt Q7Z4I7 254-330, looked up)
chain: GDVCYNCSHVIEGDVVSALNKAWCVSCFSCSTCNSKLTLKNKFVEFDMKPVCKRCYEKFPLELKKRLKKLSELTSRK
notes: human PINCH-2 LIM5 domain without the C-terminal 11 residues, residues 254-330; Cloned in pGEX4T1; held on the anti-GST biosensor; also called PINCH-2 LIM5S domain (WT); PINCH-2 LIM5 short domain; source: E. coli Rosetta 2 (DE3), purified (GSTrap)
B3: Integrin-linked kinase (ILK, residues 1-452), as subunit of the IPP complex (natural protein, human, UniProt Q13418 1-452, looked up)
chain: MDDIFTQCREGNAVAVRLWLDNTENDLNQGDDHGFSPLHWACREGRSAVVEMLIMRGARINVMNRGDDTPLHLAASHGHRDIVQKLLQYKADINAVNEHGNVPLHYACFWGQDQVAEDLVANGALVSICNKYGEMPVDKAKAPLRELLRERAEKMGQNLNRIPYKDTFWKGTTRTRPRNGTLNKHSGIDFKQLNFLTKLNENHSGELWKGRWQGNDIVVKVLKVRDWSTRKSRDFNEECPRLRIFSHPNVLPVLGACQSPPAPHPTLITHWMPYGSLYNVLHEGTNFVVDQSQAVKFALDMARGMAFLHTLEPLIPRHALNSRSVMIDEDMTARISMADVKFSFQCPGRMYAPAWVAPEALQKKPEDTNRRSADMWSFAVLLWELVTREVPFADLSNMEIGMKVALEGLRPTIPPGISPHVCKLMKICMNEDPAKRPKFDMIVPILEKMQDK
notes: human integrin-linked kinase (ILK), residues 1-452; Stood in the assay within the IPP complex; source: E. coli, co-expressed with PINCH-1 and α-parvin, purified as the IPP complex

What all share (details): both partners purified
Assay [1] concerns the target T1, PINCH-1 (residues 1-325), as subunit of the IPP complex (human, UniProt P48059 1-325).
T1 construct: human PINCH-1, residues 1-325; Stood in the assay within the IPP complex; source: E. coli, co-expressed with ILK and α-parvin, purified as the IPP complex
Nature of the assay: SEC; Superose 6 10/300 GL; purified IPP heterotrimer mixed with purified Kindlin-2 and Rsu-1, 4 °C at least 2 h; 20 mM Tris pH 7.5, 150 mM NaCl, 5% glycerol, 0.2 mM TCEP; peak reloaded on the same column. (Size exclusion chromatography separates by hydrodynamic size, large species first.)

Assay [2] concerns the target B1. The experiment in a line: BLI; BLItz; GST-fused PINCH protein or GST (0.05 mg/ml) loaded on anti-GST biosensor, Rsu-1 WT or mutant in the mobile phase; 20 mM Tris pH 7.5, 150 mM NaCl, 1 mg/ml BSA, 0.05% Tween-20; 1:1 global fit; at least three measurements. In general terms: In BLI a coated tip is dipped into the sample, and binding shifts an interference pattern.
The target of assay [3] is T2, Kindlin-2 (residues 1-680) (human, UniProt Q96AC1 1-680).
T2 construct: human kindlin-2, residues 1-680; source: SUMO-tag cleaved by Ulp1
T2 sequence (looked up): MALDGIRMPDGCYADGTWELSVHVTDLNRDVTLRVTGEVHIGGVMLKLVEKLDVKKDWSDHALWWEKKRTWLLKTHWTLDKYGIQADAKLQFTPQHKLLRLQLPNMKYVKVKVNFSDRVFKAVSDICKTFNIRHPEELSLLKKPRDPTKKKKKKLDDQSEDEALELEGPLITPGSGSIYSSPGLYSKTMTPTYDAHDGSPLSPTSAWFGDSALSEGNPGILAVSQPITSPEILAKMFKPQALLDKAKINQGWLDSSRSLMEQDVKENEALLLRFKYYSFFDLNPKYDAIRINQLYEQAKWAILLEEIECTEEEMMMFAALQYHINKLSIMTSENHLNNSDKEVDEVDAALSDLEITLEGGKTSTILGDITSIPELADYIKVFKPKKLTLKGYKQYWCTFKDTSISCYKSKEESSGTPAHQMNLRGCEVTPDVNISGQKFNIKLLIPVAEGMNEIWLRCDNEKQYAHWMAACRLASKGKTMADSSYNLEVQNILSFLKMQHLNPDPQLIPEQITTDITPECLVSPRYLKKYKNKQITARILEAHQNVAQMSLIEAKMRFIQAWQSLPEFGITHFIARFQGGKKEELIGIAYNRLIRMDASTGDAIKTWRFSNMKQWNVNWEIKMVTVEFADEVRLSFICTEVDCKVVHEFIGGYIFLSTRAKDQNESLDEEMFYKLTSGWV
Nature of the assay: SEC; Superose 6 10/300 GL; purified IPP heterotrimer mixed with purified Kindlin-2 and Rsu-1, 4 °C at least 2 h; 20 mM Tris pH 7.5, 150 mM NaCl, 5% glycerol, 0.2 mM TCEP; peak reloaded on the same column.

T1 sequence (P48059 whole entry, the tested form may be a part, one chain of several): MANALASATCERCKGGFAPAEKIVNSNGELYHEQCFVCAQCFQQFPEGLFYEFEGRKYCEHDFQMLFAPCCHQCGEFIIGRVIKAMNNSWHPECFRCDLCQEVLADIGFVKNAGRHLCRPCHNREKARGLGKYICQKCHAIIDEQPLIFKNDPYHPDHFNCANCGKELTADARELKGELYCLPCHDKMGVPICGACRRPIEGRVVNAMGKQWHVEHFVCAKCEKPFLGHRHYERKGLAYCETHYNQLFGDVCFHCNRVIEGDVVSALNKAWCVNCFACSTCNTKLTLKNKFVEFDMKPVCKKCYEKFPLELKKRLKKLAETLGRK

As to B1, in assay [1], the binding result is “binds”.
Consider B2, for which the Kd (usually the free concentration of one partner at which half of the binding sites on the other are occupied at equilibrium, for simple one-to-one binding) in assay [2] turned out to be 925 ± 194 nM.
Take B3: in assay [3], the binding result is “binds”.

(Values after article PMC8141872 (The Journal of Biological Chemistry, 2021).)
